B1: human LIF (Leukemia Inhibitory Factor), expression host not stated at the place of use (ligand)
chain: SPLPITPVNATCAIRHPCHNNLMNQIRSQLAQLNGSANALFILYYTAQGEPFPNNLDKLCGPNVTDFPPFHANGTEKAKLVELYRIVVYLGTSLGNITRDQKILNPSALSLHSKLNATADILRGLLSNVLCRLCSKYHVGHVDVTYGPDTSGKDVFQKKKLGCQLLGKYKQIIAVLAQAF
notes: species not repeated there) and for the cell assays with endogenous or added human LIF; also called hLIF; Bt-LIF

One experiment addresses T1, recombinant human gp130 (human, UniProt P40189 23-619, limits assumed).
T1 construct: Coated on ELISA plates
T1 sequence (looked up): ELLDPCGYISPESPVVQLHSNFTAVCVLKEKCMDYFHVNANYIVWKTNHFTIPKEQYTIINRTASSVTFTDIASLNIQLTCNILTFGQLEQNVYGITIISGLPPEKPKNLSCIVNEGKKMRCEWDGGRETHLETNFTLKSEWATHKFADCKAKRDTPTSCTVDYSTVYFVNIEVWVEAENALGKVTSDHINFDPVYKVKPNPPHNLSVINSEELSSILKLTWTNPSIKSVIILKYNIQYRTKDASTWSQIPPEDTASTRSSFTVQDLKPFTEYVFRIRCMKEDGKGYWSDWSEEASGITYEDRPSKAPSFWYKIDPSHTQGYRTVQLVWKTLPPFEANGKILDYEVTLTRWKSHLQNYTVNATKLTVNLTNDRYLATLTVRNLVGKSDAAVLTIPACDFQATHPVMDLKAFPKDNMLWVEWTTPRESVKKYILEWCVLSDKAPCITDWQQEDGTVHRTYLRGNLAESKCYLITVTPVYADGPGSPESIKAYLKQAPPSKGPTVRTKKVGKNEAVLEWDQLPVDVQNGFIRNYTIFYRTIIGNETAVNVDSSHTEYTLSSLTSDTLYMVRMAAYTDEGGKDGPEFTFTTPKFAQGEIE
Briefly: ELISA: LIF pre-incubated with B09 and added to a gp130-coated plate; the mAb part is detected with anti-rat IgG-HRP.

The target of experiment [1] is B1. Briefly: cell-based or functional assay.
The target of a further experiment is T2, human IL-6 (E. coli) (human, UniProt P05231 30-212, limits assumed).
T2 construct: also called huIL-6 (E. coli)
T2 sequence (P05231 30-212 limits assumed): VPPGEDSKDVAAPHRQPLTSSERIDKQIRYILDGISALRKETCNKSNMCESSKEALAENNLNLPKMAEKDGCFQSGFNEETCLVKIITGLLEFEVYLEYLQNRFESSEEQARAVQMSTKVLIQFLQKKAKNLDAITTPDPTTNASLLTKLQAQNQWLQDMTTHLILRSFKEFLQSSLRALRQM
The experiment in a line: BLI (Octet), h5D8 amine-coupled on AR2G biosensor, cytokine as analyte.

Experiment [2] concerns the target T3, recombinant human LIFR (LIF receptor) (human, UniProt P42702 45-833, limits assumed).
T3 construct: Soluble analyte in the Octet assay and coated on ELISA plates; also called hLIFR
T3 sequence (looked up): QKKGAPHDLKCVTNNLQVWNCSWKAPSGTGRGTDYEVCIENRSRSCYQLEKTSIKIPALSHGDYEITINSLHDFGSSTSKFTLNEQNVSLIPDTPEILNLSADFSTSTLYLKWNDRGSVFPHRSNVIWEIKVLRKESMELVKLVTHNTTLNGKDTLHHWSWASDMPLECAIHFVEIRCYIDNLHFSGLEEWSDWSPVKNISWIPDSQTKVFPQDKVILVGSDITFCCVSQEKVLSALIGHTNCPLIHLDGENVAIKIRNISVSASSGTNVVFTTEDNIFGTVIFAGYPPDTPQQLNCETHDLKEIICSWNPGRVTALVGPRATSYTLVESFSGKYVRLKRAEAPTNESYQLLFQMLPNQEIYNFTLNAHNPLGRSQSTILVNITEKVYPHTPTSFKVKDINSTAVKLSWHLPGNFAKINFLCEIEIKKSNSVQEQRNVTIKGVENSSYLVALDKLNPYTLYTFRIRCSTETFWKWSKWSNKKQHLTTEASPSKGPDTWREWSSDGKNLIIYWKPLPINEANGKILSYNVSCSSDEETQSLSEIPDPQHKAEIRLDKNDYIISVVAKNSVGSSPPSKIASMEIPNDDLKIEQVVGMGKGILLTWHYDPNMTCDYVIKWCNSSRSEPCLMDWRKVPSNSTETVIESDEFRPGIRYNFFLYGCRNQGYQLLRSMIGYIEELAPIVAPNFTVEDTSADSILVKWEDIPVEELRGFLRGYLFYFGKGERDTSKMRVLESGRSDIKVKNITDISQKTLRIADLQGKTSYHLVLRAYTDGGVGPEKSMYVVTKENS
Briefly: BLI (Octet RED 96), control experiment, h5D8 on AHC biosensor.

Experiment [3] concerns the target B1. The experiment in a line: competitive binding assays against LIF.
The target of experiment [4] is T4, human LIF (HEK-293) (human, UniProt P15018 23-202).
T4 construct: Bought recombinant glycosylated protein; also called hLIF (HEK 293); huLIF (mammalian)
T4 sequence (P15018 23-202 limits assumed): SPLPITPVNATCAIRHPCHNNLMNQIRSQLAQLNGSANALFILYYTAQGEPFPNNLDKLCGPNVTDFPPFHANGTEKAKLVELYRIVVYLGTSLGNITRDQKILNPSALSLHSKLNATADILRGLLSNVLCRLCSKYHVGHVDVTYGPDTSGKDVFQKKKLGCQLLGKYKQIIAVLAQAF
Briefly: MSD electrochemiluminescence sandwich assay (Example 23): A4 spot-coated as capture, Sulfo-Tag 7C3 (M017C3) as detection, rhLIF titrated with saturating h5D8.
Excerpt: Quality controls and samples are transferred in triplicate to the coated and blocked MSD plate. […] The intensity quantified by the system is proportional to the amount of bound antibody complexes and is expressed as RLU (Relative Light Units).

The target in experiment [5] is T4, human LIF (HEK-293). The experiment in a line: MSD electrochemiluminescence sandwich assay: mAb 3 (chimeric rabbit/human A4) as capture antibody, LIF titrated; detection antibody not named in the figure (7C3 in Example 23).

These results are taken from US20210190798A1 (AstraZeneca / MedImmune, published 2021).

Description for human IL-6 (E. coli): 9.0.0.26 as follows: Amine Reactive 2ndGeneration Biosensors (AR2G) were hydrated for a minimum of 15 minutes in water. […] Kinetics experiments were then performed with the following Dip and Read steps at 30° C., 1000rpm: vi) 60 seconds Baseline in lx kinetics buffer; vii) 180 seconds Association of appropriate serial dilutions of a cytokine in lx kinetics buffer; viii) 300 seconds Dissociation in 1X kinetics buffer; ix) Three Regeneration/Neutralization cycles alternating between 10mM glycine pH 2.0 and lx kinetics buffer respectively (5 seconds in each for 3 cycles).

In the case of B1, the binding result with recombinant human gp130 is “binds”.

B2: h5D8 (humanized 5D8 antibody comprising H2 and L2) (antibody, V domains shown)
VH: QVQLQESGGGLVKPGGSLRLSCAASGFTFSHAWMHWVRQAPGKGLEWVGQIKAKSDDYATYYAESVKGRFTISRDDSKNTLYLQMNSLKTEDTAVYYCTCWEWDLDFWGQGTMVTVSS
VL: DIVMTQTPLSSPVTLGQPASISCRSSQSLLDSDGHTYLNWLQQRPGQPPRLLIYSVSNLESGVPDRFSGSGAGTDFTLKISRVEAEDVGVYYCMQATHAPPYTFGQGTKLEIK
notes: also called H2L2; G (H2L2)
For the molecule B2, the “IC50 for biological inhibition (pSTAT3, U-251 cells, serum starved)” value in experiment [1] amounted to 490 picomolar. Moreover, the binding result (in the experiment with human IL-6 (E. coli); in experiment [2]) was “no binding” in each case.

B3: A4 (rabbit monoclonal anti-LIF capture antibody) (antibody, V domains shown)
VH: EQLEESVGDLVKPGASLTLTCTASGFSFSGLYYMCWVRQAPGKGLEWIACIWTGSTDSTYYATWAKGRFTISKTSSTTVTLQMTSLTVADTATYFCARGGGVPGDGYALWGPGTLVTVSS
VL: ELVMTQTPASVSEPVGGTVTINCQASEDISSNLVWYQQKSGQPPKLLIYDASMLASGVPSRFKGSGSGTQFTLTISDLECADGATYYCQSYYVASSSYFVNGFGGGTEVV
notes: Rabbit monoclonal antibody; also called capture antibody A4; rabbit A4 monoclonal capture antibody
On to B3, for which the binding result (in experiment [3]; in the experiment with human LIF (HEK-293) [4]) was “binds” in each case.

B4: mAb 3 (antibody, V domains shown)
VH: EQLEESVGDLVKPGASLTLTCTASGFSFSGLYYMCWVRQAPGKGLEWIACIWTGSTDSTYYATWAKGRFTISKTSSTTVTLQMTSLTVADTATYFCARGGGVPGDGYALWGPGTLVTVSS
VL: ELVMTQTPASVSEPVGGTVTINCQASEDISSNLVWYQQKSGQPPKLLIYDASMLASGVPSRFKGSGSGTQFTLTISDLECADGATYYCQSYYVASSSYFVNGFGGGTEVV
notes: also called chimeric rabbit/human A4 antibody
For B4, in the experiment with human LIF (HEK-293) [5], the binding result is “binds”.
